According to article PMC12348683:

Molecular target: T1, KwaB (O55) (Escherichia coli O55, UniProt P0DW46 1-315)
T1 sequence: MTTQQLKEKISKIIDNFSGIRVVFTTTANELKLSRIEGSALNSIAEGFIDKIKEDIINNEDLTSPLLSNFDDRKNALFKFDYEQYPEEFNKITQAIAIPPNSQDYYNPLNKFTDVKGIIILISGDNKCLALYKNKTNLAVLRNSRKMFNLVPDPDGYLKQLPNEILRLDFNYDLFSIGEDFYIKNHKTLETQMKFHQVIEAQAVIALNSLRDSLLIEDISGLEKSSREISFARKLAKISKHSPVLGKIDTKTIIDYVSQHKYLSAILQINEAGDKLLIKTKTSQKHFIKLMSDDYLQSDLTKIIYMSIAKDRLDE
Test: EMSA

B1: 72-bp dsDNA (dsDNA)
DNA 1: TGGTTTTTATATGTTTTGTTATGTATTGTTTATTTTCCCTTTAATTTTAGGATATGAAAACAAGAATTTATC
DNA 2: GATAAATTCTTGTTTTCATATCCTAAAATTAAAGGGAAAATAAACAATACATAACAAAACATATAAAAACCA
binding result: binds
